Assay results published in the supplement of paper PMC6379048.

Experiments:
Test in all cases: Kd (EC50 corrected by depletion factor)
SF3B6 = SF3B6 (UniProt Q9Y3B4)
Method in brief: (§1)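 Kd was calculated as EC50, taken from a four-parameter log-logistic fit, multiplied by a protein-dependent depletion factor. The assay used HEK293-FT lysate (2.5 mg protein/well) pre-incubated for 1 h at 4°C with free RNA oligos (0 nM to 30 μM), then incubated for 30 min at 4°C with the matching oligos bound through a 5′-amino-C6 linker to NHS-Sepharose beads. Bound proteins were measured by label-free LC-MS/MS and normalised to the control.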

PABPN1 = biological target: T1, PABPN1 (UniProt Q86U42)
T1 sequence: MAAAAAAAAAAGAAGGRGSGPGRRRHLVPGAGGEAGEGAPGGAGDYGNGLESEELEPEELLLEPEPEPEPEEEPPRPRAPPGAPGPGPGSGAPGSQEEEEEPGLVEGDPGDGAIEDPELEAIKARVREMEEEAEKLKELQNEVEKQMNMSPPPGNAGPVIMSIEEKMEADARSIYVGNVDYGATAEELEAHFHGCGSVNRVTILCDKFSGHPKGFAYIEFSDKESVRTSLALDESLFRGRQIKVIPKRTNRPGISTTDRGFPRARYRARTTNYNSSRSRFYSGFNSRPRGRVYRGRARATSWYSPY
Method in brief: as §1

PUF60 = biological target: T2, PUF60 (UniProt Q9UHX1)
T2 sequence: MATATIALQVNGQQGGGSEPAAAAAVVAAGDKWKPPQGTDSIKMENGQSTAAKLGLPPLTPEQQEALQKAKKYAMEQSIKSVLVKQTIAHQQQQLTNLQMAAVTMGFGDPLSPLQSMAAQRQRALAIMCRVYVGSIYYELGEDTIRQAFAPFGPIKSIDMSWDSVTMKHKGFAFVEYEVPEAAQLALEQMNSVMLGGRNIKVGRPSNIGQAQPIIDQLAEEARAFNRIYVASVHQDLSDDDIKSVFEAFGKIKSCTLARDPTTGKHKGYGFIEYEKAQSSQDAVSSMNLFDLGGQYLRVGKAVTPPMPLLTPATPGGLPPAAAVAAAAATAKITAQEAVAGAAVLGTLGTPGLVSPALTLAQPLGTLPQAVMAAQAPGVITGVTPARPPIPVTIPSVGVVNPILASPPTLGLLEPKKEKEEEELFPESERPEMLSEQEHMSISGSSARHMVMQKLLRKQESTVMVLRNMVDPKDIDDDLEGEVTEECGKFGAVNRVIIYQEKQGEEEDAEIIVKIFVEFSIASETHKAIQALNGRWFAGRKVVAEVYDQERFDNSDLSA
Method in brief: as §1

RPS28 = RPS28 (UniProt P62857)
Method in brief: as §1

IGF2BP1 = IGF2BP1 (UniProt Q9NZI8)
Method in brief: as §1

LSM6 = biological target: T3, LSM6 (UniProt P62312)
T3 sequence: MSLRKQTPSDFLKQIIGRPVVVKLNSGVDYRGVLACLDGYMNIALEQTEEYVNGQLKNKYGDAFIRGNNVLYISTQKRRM
Method in brief: as §1

MRPS9 = MRPS9 (UniProt P82933)
Method in brief: as §1

PRPF31 = biological target: T4, PRPF31 (UniProt Q8WWY3)
T4 sequence: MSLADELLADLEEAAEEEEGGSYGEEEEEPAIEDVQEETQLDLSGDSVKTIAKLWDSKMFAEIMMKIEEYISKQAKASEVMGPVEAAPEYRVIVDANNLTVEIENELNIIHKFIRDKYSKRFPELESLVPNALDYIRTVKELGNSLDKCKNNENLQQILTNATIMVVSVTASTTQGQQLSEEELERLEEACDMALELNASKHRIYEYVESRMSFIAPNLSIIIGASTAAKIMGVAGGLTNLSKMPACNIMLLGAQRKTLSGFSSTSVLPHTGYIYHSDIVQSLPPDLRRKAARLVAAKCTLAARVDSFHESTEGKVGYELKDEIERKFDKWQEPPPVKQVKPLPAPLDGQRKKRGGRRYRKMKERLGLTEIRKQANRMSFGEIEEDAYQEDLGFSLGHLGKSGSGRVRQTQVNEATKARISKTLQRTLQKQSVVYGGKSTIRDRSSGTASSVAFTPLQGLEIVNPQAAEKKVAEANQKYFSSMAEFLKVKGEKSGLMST
Method in brief: as §1

PLOD1 = biological target: T5, PLOD1 (UniProt Q02809)
T5 sequence: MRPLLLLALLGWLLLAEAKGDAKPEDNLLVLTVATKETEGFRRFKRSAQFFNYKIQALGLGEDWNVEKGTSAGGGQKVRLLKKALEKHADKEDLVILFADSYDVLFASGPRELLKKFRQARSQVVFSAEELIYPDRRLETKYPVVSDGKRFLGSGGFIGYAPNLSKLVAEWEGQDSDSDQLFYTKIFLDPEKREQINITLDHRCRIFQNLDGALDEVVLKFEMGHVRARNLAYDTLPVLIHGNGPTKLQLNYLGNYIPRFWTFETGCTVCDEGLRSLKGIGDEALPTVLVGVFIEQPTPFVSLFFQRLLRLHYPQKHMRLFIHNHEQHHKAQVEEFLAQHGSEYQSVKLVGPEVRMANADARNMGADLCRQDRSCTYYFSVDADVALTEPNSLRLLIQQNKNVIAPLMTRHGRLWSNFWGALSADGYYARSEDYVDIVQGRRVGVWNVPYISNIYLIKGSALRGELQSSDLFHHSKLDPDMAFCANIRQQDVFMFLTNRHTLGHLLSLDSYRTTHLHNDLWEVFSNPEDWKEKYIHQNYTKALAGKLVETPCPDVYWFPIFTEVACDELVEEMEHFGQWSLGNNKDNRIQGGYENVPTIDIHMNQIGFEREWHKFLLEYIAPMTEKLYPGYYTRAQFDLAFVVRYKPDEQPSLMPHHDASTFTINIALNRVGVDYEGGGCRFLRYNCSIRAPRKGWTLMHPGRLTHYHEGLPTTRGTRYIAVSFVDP
Method in brief: as §1

MRPS27 = MRPS27 (UniProt Q92552)
Method in brief: as §1

SF3B6, sequence (Q9Y3B4 whole entry): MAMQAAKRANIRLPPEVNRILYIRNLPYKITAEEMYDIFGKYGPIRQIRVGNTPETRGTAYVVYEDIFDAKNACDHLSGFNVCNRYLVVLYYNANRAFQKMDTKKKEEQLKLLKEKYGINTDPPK
IGF2BP1, sequence (Q9NZI8 whole entry): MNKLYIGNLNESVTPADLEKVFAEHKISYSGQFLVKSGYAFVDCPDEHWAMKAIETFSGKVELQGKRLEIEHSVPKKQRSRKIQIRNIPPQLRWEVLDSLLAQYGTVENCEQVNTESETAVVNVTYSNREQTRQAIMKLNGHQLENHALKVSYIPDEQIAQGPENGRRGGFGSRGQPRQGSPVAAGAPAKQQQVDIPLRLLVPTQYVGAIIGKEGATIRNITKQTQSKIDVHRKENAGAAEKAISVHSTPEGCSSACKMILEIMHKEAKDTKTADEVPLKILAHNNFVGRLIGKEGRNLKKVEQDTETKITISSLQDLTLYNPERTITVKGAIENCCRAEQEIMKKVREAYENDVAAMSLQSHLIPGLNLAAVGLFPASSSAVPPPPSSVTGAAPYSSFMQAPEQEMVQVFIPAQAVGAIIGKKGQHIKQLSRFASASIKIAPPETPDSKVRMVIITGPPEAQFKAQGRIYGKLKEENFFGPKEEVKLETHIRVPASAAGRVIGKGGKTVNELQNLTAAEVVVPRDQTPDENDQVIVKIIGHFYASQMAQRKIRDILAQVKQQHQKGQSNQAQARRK

AAUAAA
Kd (SF3B6): 2270 nM | Kd (PABPN1): 368 nM | Kd (PUF60): 162 nM

CUGUCCU
Kd (RPS28): 115 nM | Kd (IGF2BP1): 1240 nM

UAUUUAU
Kd (LSM6): 275 nM | Kd (MRPS9): 27.1 nM | Kd (PRPF31): 2850 nM | Kd (PLOD1): 4470 nM | Kd (MRPS27): 49.8 nM
